Reference: US20170224836A1 (Novartis, published 2017)

T1: human CDH6 on cells (human, UniProt P55285 54-790)
T1 sequence: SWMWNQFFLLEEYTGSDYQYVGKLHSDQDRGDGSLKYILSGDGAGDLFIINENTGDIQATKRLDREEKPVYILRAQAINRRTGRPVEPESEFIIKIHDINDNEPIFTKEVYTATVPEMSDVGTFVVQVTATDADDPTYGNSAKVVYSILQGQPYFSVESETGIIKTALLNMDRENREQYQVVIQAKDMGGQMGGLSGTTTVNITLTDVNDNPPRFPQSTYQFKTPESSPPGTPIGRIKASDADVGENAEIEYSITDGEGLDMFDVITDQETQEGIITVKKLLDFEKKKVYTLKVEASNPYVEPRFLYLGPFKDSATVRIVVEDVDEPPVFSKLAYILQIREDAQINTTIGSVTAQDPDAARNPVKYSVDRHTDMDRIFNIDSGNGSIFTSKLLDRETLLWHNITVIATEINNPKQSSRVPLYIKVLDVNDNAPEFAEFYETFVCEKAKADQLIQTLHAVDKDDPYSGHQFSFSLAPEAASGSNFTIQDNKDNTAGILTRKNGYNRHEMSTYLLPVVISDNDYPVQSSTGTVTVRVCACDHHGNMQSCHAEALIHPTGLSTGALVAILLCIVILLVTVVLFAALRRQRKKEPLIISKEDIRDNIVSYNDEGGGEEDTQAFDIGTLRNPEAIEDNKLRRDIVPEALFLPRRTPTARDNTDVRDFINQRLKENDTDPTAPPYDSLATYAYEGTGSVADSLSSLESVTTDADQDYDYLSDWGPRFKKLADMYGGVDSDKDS


Target: T1, human CDH6 on cells
Test: cell-based or functional assay

Binder | percent inhibition at 1.22 nM ADC, JHOS4 cells [%] | percent inhibition at 1.22 nM ADC, KNS42 cells [%] | percent inhibition at 1.22 nM ADC, NCIH661 cells [%] | percent inhibition at 1.22 nM ADC, OVCAR3 cells [%] | percent inhibition at 1.22 nM ADC, SNU8 cells [%]
NOV0691-SMCC-DM1 (antibody, human IgG1, lambda, V domains shown, SMCC-DM1 on primary amines, sites not stated) VH: QVQLVESGGGLVKPGGSLRLSCAASGFTFSSYALNWVRQAPGKGLEWVGRIKSKTYGGSTDYAAPVKGRFTISRDDSKNTLYLQMNSLKTEDTAVYYCARDRGGYVGFDSWGQGTLVTVSS VL: DIALTQPASVSGSPGQSITISCTGTSSDVGRYNFVSWYQQHPGKAPKLMIYRVSNRPSGVSNRFSGSKSGNTASLTISGLQAEDEADYYCQSWTTYSNVVFGGGTKLTVLG | -14.4 | -9.23 | -10.5 | -1.5 | -2.56
NOV0709-SMCC-DM1 (antibody, human IgG1, lambda, V domains shown, SMCC-DM1 on primary amines, sites not stated) VH: QVQLLESGGGLVQPGGSLRLSCAASGFTFSTYYMHWVRQAPGKGLEWVSVISSDGSFTFYADSVKGRFTISRDNSKNTLYLQMNSLRAEDTAVYYCARHGYGAFDYWGQGTLVTVSS VL: DIALTQPASVSGSPGQSITISCTGTSSDVGSYNYVSWYQQHPGKAPKLMIYYVSNRPSGVSNRFSGSKSGNTASLTISGLQAEDEADYYCASYTHQGSWVFGGGTKLTVLG | 4.5 | -4.2 | 5.91 | 46.9 | -7.7
NOV0719-SMCC-DM1 (antibody, human IgG1, kappa, V domains shown, SMCC-DM1 on primary amines, sites not stated) VH: QVQLLESGGGLVQPGGSLRLSCAASGFTFSSHWVHWVRQAPGKGLEWVSVISYMGSSTYYADSVKGRFTISRDNSKNTLYLQMNSLRAEDTAVYYCARGSYDMAFDVWGQGTLVTVSS VL: DIQMTQSPSSLSASVGDRVTITCRASQSIVSYLNWYQQKPGKAPKLLIYDASSLQSGVPSRFSGSGSGTDFTLTISSLQPEDFATYYCQQSGSHSITFGQGTKVEIKR | 27.2 | 41 | -9.87 | 76 | 3.18
NOV0720-SMCC-DM1 (antibody, human IgG1, lambda, V domains shown, SMCC-DM1 on primary amines, sites not stated) VH: QVQLQQSGPGLVKPSQTLSLTCAISGDSVSSNSAGWNWIRQSPSRGLEWLGRIYYRSKWYNDYAVSVKSRITINPDTSKNQFSLQLNSVTPEDTAVYYCAREKYTVSFYDFFDYWGQGTLVTVSS VL: DIELTQPPSVSVSPGQTASITCSGDNIGSMTAHWYQQKPGQAPVLVIYDKNERPSGIPERFSGSNSGNTATLTISGTQAEDEADYYCQSWDDSYNSVVFGGGTKLTVLG | 43.5 | 57 | 1.94 | 80.7 | 3.56
NOV0705-SMCC-DM1 (antibody, human IgG1, lambda, V domains shown, SMCC-DM1 on primary amines, sites not stated) VH: QVQLVQSGAEVKKPGESLKISCKGSGYSFTNYWIGWVRQMPGKGLEWMGFIDPGVSYTRYSPSFQGQVTISADKSISTAYLQWSSLKASDTAMYYCARVLAHSTEYNWPAFWGQGTLVTVSS VL: DIVLTQPPSVSGAPGQRVTISCSGSSSNIGLDYVNWYQQLPGTAPKLLIYRNKQRPSGVPDRFSGSKSGTSASLAITGLQAEDEADYYCQAWAGRTNYVVFGGGTKLTVLG | 40.4 | -13.3 | -3.15 | 68.6 | 6.4
NOV0713-SMCC-DM1 (antibody, human IgG1, lambda, V domains shown, SMCC-DM1 on primary amines, sites not stated) VH: QVQLQQSGPGLVKPSQTLSLTCAISGDSVSSNSAAWNWIRQSPSRGLEWLGRIYYRSKWYNDYAVSVKSRITINPDTSKNQFSLQLNSVTPEDTAVYYCARGLVGRYGQPYHFDVWGQGTLVTVSS VL: DIELTQPPSVSVSPGQTASITCSGDNLRSYYVHWYQQKPGQAPVLVIYGNNKRPSGIPERFSGSNSGNTATLTISGTQAEDEADYYCGVYTLSSVVFGGGTKLTVLG | -6.22 | -17.3 | -9.74 | -3.55 | 7.79
NOV0695-SMCC-DM1 (antibody, human IgG1, kappa, V domains shown, SMCC-DM1 on primary amines, sites not stated) VH: QVQLQQSGPGLVKPSQTLSLTCAISGDSVSSNSAAWNWIRQSPSRGLEWLGRIYYRSKWYNDYAVSVKSRITINPDTSKNQFSLQLNSVTPEDTAVYYCARERSYRDYFDYWGQGTLVTVSS VL: DIQMTQSPSSLSASVGDRVTITCRASQGIFTYLNWYQQKPGKAPKLLISAASTLQSGVPSRFSGSGSGTDFTLTISSLQPEDFATYYCQQYYSTSLTFGQGTKVEIKR | 66.9 | 66.3 | 18.7 | 89 | 21.6
NOV0693-SMCC-DM1 (antibody, human IgG1, kappa, V domains shown, SMCC-DM1 on primary amines, sites not stated) VH: QVQLLESGGGLVQPGGSLRLSCAASGFTFSSYALHWVRQAPGKGLEWVSYIFYDSSSTYYADSVKGRFTISRDNSKNTLYLQMNSLRAEDTAVYYCARFLYSAYGVANWGQGTLVTVSS VL: DIQMTQSPSSLSASVGDRVTITCRASQSISFYLAWYQQKPGKAPKLLIYGASTLQSGVPSRFSGSGSGTDFTLTISSLQPEDFATYYCHQYSYWLRTFGQGTKVEIKR | 58.1 | 15.2 | 25.9 | 85.7 | 35.6
NOV0718-SMCC-DM1 (antibody, human IgG1, lambda, V domains shown, SMCC-DM1 on primary amines, sites not stated) VH: QVQLVESGGGLVKPGGSLRLSCAASGFTFNSYALHWVRQAPGKGLEWVGRIKSKTNGGTTDYAAPVKGRFTISRDDSKNTLYLQMNSLKTEDTAVYYCARVDATYSYSGYYYPMDYWGQGTLVTVSS VL: DIELTQPPSVSVSPGQTASITCSGDKIPTYTVHWYQQKPGQAPVLVIYDDNKRPSGIPERFSGSNSGNTATLTISGTQAEDEADYYCQSTASGTVVFGGGTKLTVLG | -5.03 | 3.5 | 2.51 | -3.8 | 3.35
NOV0690-SMCC-DM1 (antibody, human IgG1, lambda, V domains shown, SMCC-DM1 on primary amines, sites not stated) VH: QVQLLESGGGLVQPGGSLRLSCAASGFTFSDHAIDWVRQAPGKGLEWVSVIAGDGSITYYADSVKGRFTISRDNSKNTLYLQMNSLRAEDTAVYYCARDTGVYREYMDVWGQGTLVTVSS VL: DIELTQPPSVSVSPGQTASITCSGDAIGTKFAHWYQQKPGQAPVLVIYYDHERPSGIPERFSGSNSGNTATLTISGTQAEDEADYYCYSRASSNLVFGGGTKLTVLG | 51 | 56.8 | 14.6 | 84.8 | 18.4
NOV0692-SMCC-DM1 (antibody, human IgG1, lambda, V domains shown, SMCC-DM1 on primary amines, sites not stated) VH: QVQLVESGGGLVKPGGSLRLSCAASGFTFSRYWMDWVRQAPGKGLEWVGRIKSKANGGITDYAAPVKGRFTISRDDSKNTLYLQMNSLKTEDTAVYYCARGMTFLGIWGQGTLVTVSS VL: DIELTQPPSVSVSPGQTASITCSGDSIGSKYAQWYQQKPGQAPVLVIYYNSERPSGIPERFSGSNSGNTATLTISGTQAEDEADYYCQSWDGQSTIRVFGGGTKLTVLG | 62.3 | 57.3 | 14.8 | 88 | 15.7

Target: T1, human CDH6 on cells
Test: cell-based or functional assay
Remark: another data set of the same source

Binder | Amax (%), inhibition of proliferation, OVCAR3 cells [%] | Amax (%), inhibition of proliferation, OVCAR8 (engineered CDH6+) cells [%] | IP [nM], inhibition of proliferation, OVCAR3 cells [nM] | IP [nM], inhibition of proliferation, OVCAR8 (engineered CDH6+) cells [nM]
NOV0712-SPDB-DM4 (antibody, human IgG1, kappa, V domains shown, SPDB-DM4 on primary amines, sites not stated) VH: QVQLLESGGGLVQPGGSLRLSCAASGFTFSSHGMHWVRQAPGKGLEWVSVISGSGSNTGYADSVKGRFTISRDNSKNTLYLQMNSLRAEDTAVYYCARQWGSYAFDSWGQGTLVTVSS VL: DIQMTQSPSSLSASVGDRVTITCRASQSISSYLNWYQQKPGKAPKLLIYAVSTLQSGVPSRFSGSGSGTDFTLTISSLQPEDFATYYCQQSGTFPPTTFGQGTKVEIKR | 88 | 84 | 0.008 | 0.012
NOV0710-SPDB-DM4 (antibody, human IgG1, kappa, V domains shown, SPDB-DM4 on primary amines, sites not stated) VH: QVQLLESGGGLVQPGGSLRLSCAASGFTFSSYAMSWVRQAPGKGLEWVSVIRSSGSSTYYADSVKGRFTISRDNSKNTLYLQMNSLRAEDTAVYYCARGGGYFDYWGQGTLVTVSS VL: DIQMTQSPSSLSASVGDRVTITCRASQSISLWLNWYQQKPGKAPKLLIYAASTLQSGVPSRFSGSGSGTDFTLTISSLQPEDFATYYCQQYYTSPYTFGQGTKVEIKR | 88 | 85 | 0.01 | 0.018
